The assay addresses reported 23mer NSP3 peptide from alphaviruses. The experiment in a line: ITC.

B1: FXR1 1–122 (domain or fragment)
chain: not shown
In the case of B1, the Kd came to 19.4 µM.
